B1: N-acetylglucosamine kinase (NagK) (Vibrio vulnificus CMCP6) (protein)
chain: MYYGFDVGGTKIEFGAFNEKLERVATERVPTPTDDYPLLLETIAGLVAKYDQEFACEGKIGLGLPGMEDADDATVLTVNVPAAKGKPLRADLEAKIGRSVKIENDANCFALSEAWDEELQDAPSVMGLILGTGFGGGLIYEGKVFSGRNNVAGELGHMRLPLDAWFHLGDNAPLLGCGCGKKGCLDSYLSGRGFELLYAHYYGEEKKAIDIIKANAAGDEKAAEHVERFMELLAICFGNIFTANDPHVVALGGGLSNFELIYEEMPKRVPKYLLSVAKCPKIIKAKHGDSGGVRGAAFLNIKG
B2: N-acetylglucosamine kinase (PsNagK) (Plesiomonas shigelloides 302-73) (protein)
chain: MYYGFDIGGTKIEFGAFDADLVRVARERVATPTESYAAFLDAIVTLVNNADAEFGVKGTVGIGIPGIADVETGKLLTSNIPAAMGHTLQRDLEERLQRPVKIENDANCFALSEAWDEDLRGEPSVLGLILGTGVGGGLIFNGKVHSGRANIAGEIGHTRLPYDALKLLGMENAPIFPCGCKNSGCIDNYLSGRGFEQLYDHYFSEKLSAPEIIAHYEQGERRAVQHVERFMELLAICLANIFTCLDPHVVVLGGGLSNFELIYQELPKRLPAHLLHVAKLPKIIKARHGDAGGVRGAAFLNLA
notes: His-tagged protein

Tests used:
Assay in all cases: PK/LD coupled enzyme kinetics (KM app)
Conditions in all cases: Mg2+
[1] = substrate: Nc1ncnc2c1ncn2[C@@H]1O[C@H](COP(=O)(O)OP(=O)(O)OP(=O)(O)O)[C@@H](O)[C@H]1O; type: biochemical, Vibrio vulnificus
[2] = substrate: CC(=O)N[C@@H]1[C@@H](O)[C@H](O)[C@@H](CO)O[C@@H]1O; type: biochemical, Vibrio vulnificus
[3] = substrate: Nc1ncnc2c1ncn2[C@@H]1O[C@H](COP(=O)(O)OP(=O)(O)OP(=O)(O)O)[C@@H](O)[C@H]1O; type: biochemical, Plesiomonas shigelloides

| Protein | Km [1] [µM] | Km [2] [µM] | Km [3] [µM] |
| --- | --- | --- | --- |
| B1 | 41 ± 9 | 210 ± 60 | – |
| B2 | – | – | 290 ± 20 |
